# B1: Fission-yeast Psc3 (natural protein, fission yeast, UniProt O13816 1-962, looked up)
# chain: MSESVTTGSDDDGGDRESSPVMLSQSFDPMSSSSNSSSEENSDDDYEKTISSKKRHPRPNSKGVNVKRSRRNAIVEEDPQEEIFNNLFAFLLDQKVDTMDIAVSWFADYAKDNQSALANLINFILKCCGCNRAINVFDVQDQDSASATLSQIQLSVERTSTRDYPLNSKNLKFRNFRKRLTGLLSNFVSQLSIRNYLYNSTVFEDIMSWVVAMSSSTMRPIRHTATVFCLNIMTFLCEKSKELLNEHAIATKQLEKEEKRSRVNRNRINELNNSLGEIVKQQDTLTTYLNDYFDSVFVHRYRDVEPKIRVDCLQELGVWINTVPSIFFSGSYLRYLGWMLSDINTTVRLTVVKVLRKFFETDSFIGGLRHFSSRFKERILEMSCVDADIGVRVASIRLCNAMRTCGFLENSEILKVLKLILDINPRVQREAVLFLCKVVDESVNEKIDLWGEEDYILKAFSQTSLTTFSVHWIKFSQMCKLLEEVRLSYQSSFDYDTLLRIFQKNGNFITPITQALLNACEIDSIYQSWEDISNFVLFDNYTSTLKDPIDSILSFCKLNDFQESILLQLLSASIQTVCNNNFITPKTVHNKQAAETTNDQNKDKDLLYLNLLPYINSITERNSASPTLLHDSLRLLFSMDLTEMTDPQLSRHFELLINNLKKFFLTNNDLQIIQGCTILFLRLDSIPALKEDLKLLVTDICDQTVTEFLKNFGSFNIQDAVITKDEFVIFEACLTRIEGCTSLKDFSDYPEFDIIYERLVSLLSRVPNSYEDTLKFSAINTLQSLLFWFFLRKDNPADEEKKKDDETKVFNCLINIMNNDSSKILQLQAARTFLETVIMKEGVKASHYNDDNRVSEEHNFLKPQFLDALLKILEGWLYTYAKVGQFPFKRLTQASSPHTQISLDKNPLNRRLLEHVCCDLTSKLLIVVSLSNTITPEFSQQFCELRGHYGPKLSAIVDEFLN
# notes: Psc3 (Scc3), subunit of fission-yeast cohesin, as a separate protein; source: prepared and purified as described (Murayama and Uhlmann, 2014)
# B2: Fission-yeast Pds5 (natural protein, fission yeast, UniProt Q9HFF5 1-1205, looked up)
# chain: MIKLQFQRNIVPTHDNPLTTSEILKRLRDLLGELTSLSQDTIDRDSVLPVARSLVNNNLLHHKDKGIRSYTLCCIVELLRLCAPDAPFTLSQLEDIFQVILKILSGLMNQESTYYPQIYEILESLSNVKSAVLIVDLPNAEEFLVNIFRLFFDLARKGTTKNVEFYMLDIINQLINEINTIPAAALNILFAQLISGKGVRQTIGSSDSTNHGPAFQLARNIFHDSADRLQRYVCQYFSDIIFDSRDSLSDSMTTPEFIFSHNLVLQLWKYAPTTLLNIIPQFENELQAEQTSVRLVAIETVGLMLQDNAIWSDYPRVWSAFCGRLNDKSVACRIKCIEVASNALQNSLATSEIIENVVQMLQSKLADTDEKVRVATLKTIEQLTFETFKMQFSVQALKLMGDRLRDRKLNVRLQAIRTLSQIYNRAYQDLIDGVEYSIQMFSWIPSSLLEVFYVNDETTNAAVEICMAELVLQYLSSDTQTRLNRLFLSIKYFSEKAMRVFILLLQRQVKYSELLNYYIECCKNYNGGVMDNDEESITNKLKKVIDIISSKSSNPTLTEATFRKFAELNDRQSYKMLLQTFSIKSEYQVVLKSIKYLFKRVSETLSTASLECFRIFVYRSALFAFNKSNVHEIIQLLNEPVKYHNFLKPSEALLQHLPLIHPNIYGEVVIEVENIIVSSGIESDPKVIKALSQFSKRKKNFSIQTTTAEILRKLCLHGTQEQAKQAATIIAITETKEFKLDMITNIVENLEYNGGLPVRLMTLGQLFLYTLEEVEKVADQVTEFLVKKVIQRFPEKYDDTHNDEEWCTYEKLDNLTMCKVLAIRVLVNRLRAAAGGTEALNIGAPIIKLLKVLLMADGELSPFKNTPKISRAYLRLTASKYFLKLCSIPFYAEHIDFSSYVQISLLCQDENFDVRNLFLTKLQKQLQLKKLPISYYPLLFLTAVDPEEEIKTKASIWIRSQVAFFQKTHDFTMEYVATYLIHLLSHHPDISSIESENSLDFIAYIRFYVDTVVNSENVPIVFHLMQRIKQSYDVIEDGNNYIYVLSDMAQKILQVKSQNFGWSLTTYPKQIKLPYEILRPIPSIDEKKRIFNKIFITPKMESQIEHAIRTPVSSFAKQTTNKHANLKQKKTHSSKSDKKSSRRRKNEKRRKLNEQNPNIRNVPERSSSRFQGIRINYSEAPSSSEEISEEEEEISEEDFDEIEDL
# notes: Pds5, cohesin subunit of fission yeast; Protein A was removed by protease; source: overexpressed in budding yeast, purified (IgG-agarose, Capto Q, gel filtration)
# B3: Fission-yeast Wapl (natural protein, fission yeast, UniProt O94364 1-602, looked up)
# chain: MKRGKCKEKDNGLKRISSESEVWNFLDVTVSELNKQKRSPGQTVSKRLHKKQRVVSNPDLSLPSSPVKQILRNGLQNSKYGSHKTGLERSASCSSIDASANHSSTTYREQRSYLMEEGLDTQPIVPREVSSGRELDSTNHTIGTERAFLIEEDVSEDDEIQMKSIHELRFAGEQQRIVDEIEYLVDGVTFSGNSSASRYLSLIGIAEKMFDNSFRLCLKSIRDVFLRIFEEIDPKDTLHTFLQIYIFATMANEMDCMSSLLDAYSNNVKLLLQTAITLEPQVPVSILAKSLPKSVKGAVQEFVIKAELTFSFSNESLASSDSISLAAIALMKTSSGVFAESELFTELINLLIEKSYPILKENDGSNNFLLHALCSSLEKFTDFQGSEKIQKVSQILSSKLQILIDEHNETNSPKIDDTVVHACSEKLLRTLIQTVNSNSDHALAVSKSEVPLFAYKILQKFSNFSSDDETTRELIILILGLLLGLVEESHEFIQTITHVEVSFGASALDVLISFYQKNESIVEISGYVVMILSHCFLNDPKAFAQLKPLISQFYESLHKFKNFHLKLKEELMMMGSNGLAIVSIIDELHKSLQDYLRSDLVK
# notes: Wapl, cohesin subunit of fission yeast; GST was removed by protease; source: E. coli, purified (glutathione sepharose, heparin chromatography)
# Experiments:
# Details in all cases: both partners purified
# Mis4-Ssl3 cohesin loader = biological target: T1, Mis4-Ssl3 cohesin loader (fission yeast, UniProt Q09725 1-1587; O94459 1-559); assay: co-IP; Psc3 immunoprecipitated; co-precipitation of the Psm1-Psm3 hinge and of the cohesin loader analysed
# T1 construct: Mis4, subunit of the fission-yeast cohesin loader; Ssl3, subunit of the fission-yeast cohesin loader; also called MS; source: prepared and purified as described (Murayama and Uhlmann, 2014)
# [1] = biological target: T2, Fission-yeast cohesin trimer (Psm1, Psm3 and Rad21) (fission yeast, UniProt O94383 1-1228; O42649 1-1194; P30776 1-628); assay: co-IP; recombinant cohesin tetramer or trimer immunoprecipitated via Rad21-HA with Pds5 and Wapl both added; bound proteins by western blotting
# T2 construct: Psm1 (Smc1), SMC subunit of fission-yeast cohesin; Psm3 (Smc3), SMC subunit of fission-yeast cohesin; Rad21, kleisin subunit of fission-yeast cohesin; Lacks Psc3; source: recombinant, purified (Murayama and Uhlmann, 2014); copies: + +
# T2 sequence (O94383 whole entry, chain 1 of 3): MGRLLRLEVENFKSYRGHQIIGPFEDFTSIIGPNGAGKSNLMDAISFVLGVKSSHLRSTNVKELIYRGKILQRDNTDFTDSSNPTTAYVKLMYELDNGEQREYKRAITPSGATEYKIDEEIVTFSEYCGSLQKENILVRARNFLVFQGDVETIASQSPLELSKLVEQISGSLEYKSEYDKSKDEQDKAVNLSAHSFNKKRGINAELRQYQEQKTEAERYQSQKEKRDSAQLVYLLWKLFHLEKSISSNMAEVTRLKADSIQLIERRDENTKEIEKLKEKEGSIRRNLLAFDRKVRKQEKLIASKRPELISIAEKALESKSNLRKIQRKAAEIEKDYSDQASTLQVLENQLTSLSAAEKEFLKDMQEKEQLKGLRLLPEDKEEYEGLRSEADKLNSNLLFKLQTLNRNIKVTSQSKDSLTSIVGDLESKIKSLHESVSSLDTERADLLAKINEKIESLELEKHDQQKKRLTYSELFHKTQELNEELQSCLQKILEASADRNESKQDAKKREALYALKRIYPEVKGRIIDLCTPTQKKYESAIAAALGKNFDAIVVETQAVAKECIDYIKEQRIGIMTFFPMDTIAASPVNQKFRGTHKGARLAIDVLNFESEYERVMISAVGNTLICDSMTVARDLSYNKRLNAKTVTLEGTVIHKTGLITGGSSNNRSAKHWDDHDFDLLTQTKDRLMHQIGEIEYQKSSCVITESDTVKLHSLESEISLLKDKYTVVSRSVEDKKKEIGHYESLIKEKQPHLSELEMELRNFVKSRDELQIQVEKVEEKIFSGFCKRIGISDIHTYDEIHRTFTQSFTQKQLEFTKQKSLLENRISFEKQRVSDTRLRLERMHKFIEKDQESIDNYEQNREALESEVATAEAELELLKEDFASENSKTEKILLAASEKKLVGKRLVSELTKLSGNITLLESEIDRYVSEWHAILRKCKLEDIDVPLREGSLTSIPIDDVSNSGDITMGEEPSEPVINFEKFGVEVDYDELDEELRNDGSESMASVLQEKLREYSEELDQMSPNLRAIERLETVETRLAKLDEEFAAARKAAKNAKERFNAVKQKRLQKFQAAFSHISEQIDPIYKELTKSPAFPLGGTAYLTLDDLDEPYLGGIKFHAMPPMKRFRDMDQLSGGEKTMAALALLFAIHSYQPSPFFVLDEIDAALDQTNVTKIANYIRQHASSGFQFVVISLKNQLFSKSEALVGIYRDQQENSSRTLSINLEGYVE
# T2 sequence (O42649 whole entry, chain 2 of 3): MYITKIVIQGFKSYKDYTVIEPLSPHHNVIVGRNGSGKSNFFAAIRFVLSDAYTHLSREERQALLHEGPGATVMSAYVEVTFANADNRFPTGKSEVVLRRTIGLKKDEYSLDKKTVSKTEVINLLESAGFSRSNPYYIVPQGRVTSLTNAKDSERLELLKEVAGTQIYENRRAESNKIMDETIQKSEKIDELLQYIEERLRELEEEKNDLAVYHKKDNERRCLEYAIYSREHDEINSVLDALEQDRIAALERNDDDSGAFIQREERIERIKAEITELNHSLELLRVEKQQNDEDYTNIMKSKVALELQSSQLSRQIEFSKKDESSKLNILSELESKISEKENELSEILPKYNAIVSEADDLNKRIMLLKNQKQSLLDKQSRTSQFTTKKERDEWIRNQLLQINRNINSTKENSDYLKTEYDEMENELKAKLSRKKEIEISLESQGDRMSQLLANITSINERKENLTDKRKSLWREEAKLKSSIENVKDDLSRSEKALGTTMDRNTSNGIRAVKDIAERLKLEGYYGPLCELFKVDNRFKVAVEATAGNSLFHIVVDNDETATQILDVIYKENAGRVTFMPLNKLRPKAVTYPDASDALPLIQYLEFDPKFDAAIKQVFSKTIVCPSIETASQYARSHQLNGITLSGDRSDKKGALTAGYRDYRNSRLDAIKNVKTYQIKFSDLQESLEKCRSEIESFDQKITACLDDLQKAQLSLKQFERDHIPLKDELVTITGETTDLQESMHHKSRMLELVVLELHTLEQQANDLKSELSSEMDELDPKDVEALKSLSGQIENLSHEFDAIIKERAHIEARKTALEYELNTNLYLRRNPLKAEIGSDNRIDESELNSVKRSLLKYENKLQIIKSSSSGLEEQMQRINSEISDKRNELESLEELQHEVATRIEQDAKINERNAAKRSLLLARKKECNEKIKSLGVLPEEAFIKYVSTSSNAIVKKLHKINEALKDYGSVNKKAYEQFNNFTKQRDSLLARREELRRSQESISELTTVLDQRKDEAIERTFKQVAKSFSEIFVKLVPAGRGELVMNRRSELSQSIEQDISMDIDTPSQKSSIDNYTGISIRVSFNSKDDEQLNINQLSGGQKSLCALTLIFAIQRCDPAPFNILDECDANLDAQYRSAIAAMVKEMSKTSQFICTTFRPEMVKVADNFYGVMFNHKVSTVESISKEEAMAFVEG
# T2 sequence (P30776 whole entry, chain 3 of 3): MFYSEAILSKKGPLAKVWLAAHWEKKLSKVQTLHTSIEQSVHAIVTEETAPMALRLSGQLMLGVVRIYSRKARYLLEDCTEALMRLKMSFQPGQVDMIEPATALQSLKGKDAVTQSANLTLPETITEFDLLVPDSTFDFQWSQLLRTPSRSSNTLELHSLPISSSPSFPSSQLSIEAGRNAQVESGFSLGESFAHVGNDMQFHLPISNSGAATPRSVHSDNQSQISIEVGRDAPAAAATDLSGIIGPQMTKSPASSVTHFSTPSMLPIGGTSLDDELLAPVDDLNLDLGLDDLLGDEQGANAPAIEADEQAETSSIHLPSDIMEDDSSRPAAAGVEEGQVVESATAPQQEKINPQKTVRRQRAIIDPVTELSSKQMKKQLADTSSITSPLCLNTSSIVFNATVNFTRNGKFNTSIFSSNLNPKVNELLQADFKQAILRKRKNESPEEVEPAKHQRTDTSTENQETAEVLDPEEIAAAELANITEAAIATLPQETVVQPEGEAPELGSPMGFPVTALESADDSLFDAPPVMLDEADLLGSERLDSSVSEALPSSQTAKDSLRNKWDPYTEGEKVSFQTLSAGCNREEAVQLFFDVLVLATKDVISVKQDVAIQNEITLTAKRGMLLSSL
# [2] = biological target: T3, Fission-yeast cohesin tetramer (Psm1, Psm3, Rad21 and Psc3) (fission yeast, UniProt O94383 1-1228; O42649 1-1194; P30776 1-628; O13816 1-962); assay: as above
# T3 construct: Psm1 (Smc1), SMC subunit of fission-yeast cohesin; Psm3 (Smc3), SMC subunit of fission-yeast cohesin; Rad21, kleisin subunit of fission-yeast cohesin; Psc3 (Scc3), subunit of fission-yeast cohesin; also called "4"; source: recombinant, purified as described (Murayama and Uhlmann, 2014); not shown: Pk, C-terminal, kept; copies: + + +
# T3 sequence (O94383 whole entry, chain 1 of 3): as the sequence (O94383 whole entry, chain 1 of 3) above
# T3 sequence (O42649 whole entry, chain 2 of 3): as the sequence (O42649 whole entry, chain 2 of 3) above
# T3 sequence (P30776 whole entry, chain 3 of 3): as the sequence (P30776 whole entry, chain 3 of 3) above
# Fission-yeast Pds5 = biological target: B2; assay: SEC; purified Pds5 and Wapl mixed in equimolar amounts and analysed by gel filtration; fractions by SDS-PAGE and silver staining
binding result (Mis4-Ssl3 cohesin loader),binding result [1],binding result [2],binding result (Fission-yeast Pds5),Binder
binds,,,,B1
,binds,binds,,B2
,binds,binds,binds,B3

# — PMC4701713, “DNA Entry into and Exit out of the Cohesin Ring by an Interlocking Gate Mechanism” (Cell, 2015)
